Data reported in PMC8934645, “Discovery of potent and versatile CRISPR–Cas9 inhibitors engineered for chemically controllable genome editing”.

How the values were obtained:
St3Cas9;AcrIIA24 = St3Cas9;AcrIIA24 (Streptococcus …, UniProt Q03JI6;A0A3G8FCC3 1-1388;1-104, |); assay: EMSA; sgRNA; AcrIIA24 added before DNA; supershift; 20 mM Tris-HCl pH 7.6, 150 mM KCl, 5 mM EDTA (Results text: 10 mM EDTA), 5 mM MgCl2, 1 mM DTT, 5% glycerol, 50 ug/ml heparin, 0.01% Tween 20, 100 ug/ml BSA; RNP and DNA steps 37 C 10 min, Acr RT 20 min; RNP 256 nM, DNA 20 nM; RNA EMSA 256 nM Cas9 and sgRNA, 37 C; settings: protein: recombinant;recombinant; tags: His (pET28a, Ni-NTA);tag removed by TEV; copies: 1;1; label: Cy5 on target strand; blunt
St1Cas9;AcrIIA30 = St1Cas9;AcrIIA30 (Streptococcus …, UniProt Q03LF7; 1-1121;, |); assay: EMSA; sgRNA; AcrIIA30 added after DNA; supershift; 20 mM Tris-HCl pH 7.6, 150 mM KCl, 5 mM EDTA (Results text: 10 mM EDTA), 5 mM MgCl2, 1 mM DTT, 5% glycerol, 50 ug/ml heparin, 0.01% Tween 20, 100 ug/ml BSA; RNP and DNA steps 37 C 10 min, Acr RT 20 min; RNP 256 nM, DNA 20 nM; RNA EMSA 256 nM Cas9 and sgRNA, 37 C; settings: protein: recombinant;recombinant; tags: His (pET28a, Ni-NTA);tag removed by TEV; copies: 1;1; label: Cy5 on target strand; blunt
SpyCas9;AcrIIA32.1 = SpyCas9;AcrIIA32.1 (Streptococcus pyogenes;Streptococcus …, UniProt Q99ZW2; 1-1368;, |); assay: EMSA; sgRNA; AcrIIA32.1 added after DNA; supershift; 20 mM Tris-HCl pH 7.6, 150 mM KCl, 5 mM EDTA (Results text: 10 mM EDTA), 5 mM MgCl2, 1 mM DTT, 5% glycerol, 50 ug/ml heparin, 0.01% Tween 20, 100 ug/ml BSA; RNP and DNA steps 37 C 10 min, Acr RT 20 min; RNP 256 nM, DNA 20 nM; RNA EMSA 256 nM Cas9 and sgRNA, 37 C; settings: protein: recombinant;recombinant; tags: ;tag removed by TEV; label: Cy5 on target strand; blunt

B1: Substrate DNA, St3Cas9 sgRNA target (dsDNA)
DNA 1: CTCACGGGTGTCATTCTCCACTCAGTGGCAGACCTTGCTCCCGCGAGGAGTAGTCG
DNA 2: CGACTACTCCTCGCGGGAGCAAGGTCTGCCACTGAGTGGAGAATGACACCCGTGAG
St3Cas9;AcrIIA24
  binding result: binds

B2: Substrate DNA, St1Cas9 sgRNA target (dsDNA)
DNA 1: B1 DNA 1
DNA 2: B1 DNA 2
St1Cas9;AcrIIA30
  binding result: binds

B3: Substrate DNA, SpyCas9 sgRNA target (dsDNA)
DNA 1: B1 DNA 1
DNA 2: B1 DNA 2
SpyCas9;AcrIIA32.1
  binding result: binds
